[ ]: non-standard residue; d: D form. Hyp = O=C(O)[C@@H]1C[C@@H](O)CN1; NMeI = CC[C@H](C)[C@H](NC)C(=O)O
B1: Compound (m), H-D-Arg-Arg-Pro-Hyp-Gly-Phe-Ser-D-Phe-Leu-Arg-OH (peptide)
peptide: H-[dR]RP[Hyp]GFS[dF]LR-OH
SMILES: CC(C)C[C@H](NC(=O)[C@@H](Cc1ccccc1)NC(=O)[C@H](CO)NC(=O)[C@H](Cc1ccccc1)NC(=O)CNC(=O)[C@@H]1C[C@@H](O)CN1C(=O)[C@@H]1CCCN1C(=O)[C@H](CCCNC(=N)N)NC(=O)[C@H](N)CCCNC(=N)N)C(=O)N[C@@H](CCCNC(=N)N)C(=O)O
B2: Compound (j), H-Phe-Gly-Gly-D-Arg-Ile-Asp-D-Arg-Ile-NH2 (peptide)
peptide: H-FGG[dR]ID[dR]I-NH2
SMILES: CC[C@H](C)[C@H](NC(=O)[C@@H](CCCNC(=N)N)NC(=O)[C@H](CC(=O)O)NC(=O)[C@@H](NC(=O)[C@@H](CCCNC(=N)N)NC(=O)CNC(=O)CNC(=O)[C@@H](N)Cc1ccccc1)[C@@H](C)CC)C(N)=O
B3: Compound (k), H-Phe-Gly-Gly-Arg-(N-Me)Ile-Asp-Arg-Ile-NH2 (peptide)
peptide: H-FGGR[NMeI]DRI-NH2
SMILES: CC[C@H](C)[C@H](NC(=O)[C@H](CCCNC(=N)N)NC(=O)[C@H](CC(=O)O)NC(=O)[C@H]([C@@H](C)CC)N(C)C(=O)[C@H](CCCNC(=N)N)NC(=O)CNC(=O)CNC(=O)[C@@H](N)Cc1ccccc1)C(N)=O

Experiments:
[1] = biological target: BK receptor derived from guinea pig ilea (guinea pig); experiment: inhibition of 3H-BK (200 pM) binding to guinea pig ileum membrane fraction; test compound at 10^-7 M
BK receptor derived from guinea pig ilea (guinea pig), sequence (O70526 whole entry): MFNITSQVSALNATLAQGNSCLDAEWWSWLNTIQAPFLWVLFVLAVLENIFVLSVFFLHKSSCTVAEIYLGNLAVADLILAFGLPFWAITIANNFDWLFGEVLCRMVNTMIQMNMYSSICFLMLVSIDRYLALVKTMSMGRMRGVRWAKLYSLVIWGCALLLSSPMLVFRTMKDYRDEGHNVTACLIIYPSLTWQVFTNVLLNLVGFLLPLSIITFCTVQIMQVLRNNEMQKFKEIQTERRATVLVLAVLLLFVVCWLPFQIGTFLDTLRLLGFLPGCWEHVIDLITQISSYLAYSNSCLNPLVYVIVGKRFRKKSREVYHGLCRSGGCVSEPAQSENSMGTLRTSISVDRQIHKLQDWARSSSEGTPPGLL

[2] = biological target: BK receptor derived from guinea pig ilea (guinea pig); experiment: inhibition of 3H-BK (200 pM) binding to guinea pig ileum membrane fraction; test compound at 10^-8 M
[3] = biological target: Bovine lung-derived ANP receptor (bovine); experiment: displacement of 125I-rat ANP from bovine lung membrane fraction, filter binding
Bovine lung-derived ANP receptor (bovine), sequence (P10730 42-537): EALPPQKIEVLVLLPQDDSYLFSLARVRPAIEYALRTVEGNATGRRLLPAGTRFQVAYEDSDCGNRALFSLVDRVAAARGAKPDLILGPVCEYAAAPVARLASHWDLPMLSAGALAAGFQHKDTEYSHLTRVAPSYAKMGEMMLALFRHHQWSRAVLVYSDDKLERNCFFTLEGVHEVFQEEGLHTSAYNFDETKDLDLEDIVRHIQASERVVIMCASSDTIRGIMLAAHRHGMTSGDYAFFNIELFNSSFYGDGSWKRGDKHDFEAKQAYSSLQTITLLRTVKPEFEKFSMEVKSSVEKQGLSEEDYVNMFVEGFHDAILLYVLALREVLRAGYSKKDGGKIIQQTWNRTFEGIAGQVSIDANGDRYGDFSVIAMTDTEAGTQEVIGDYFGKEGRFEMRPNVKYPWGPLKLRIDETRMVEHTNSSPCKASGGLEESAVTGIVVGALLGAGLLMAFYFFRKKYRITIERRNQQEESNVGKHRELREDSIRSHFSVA

| Binder | Percentage inhibition (%) [1] [%] | Percentage inhibition (%) [2] [%] | IC50 [3] [nM] |
| --- | --- | --- | --- |
| B1 | 68 | 20 | – |
| B2 | – | – | 5400 |
| B3 | – | – | 21 |
